Data taken from patent US20250297032A1 (CONCEPT TO MEDICINE BIOTECH, published 2025).

Legend:
[1] = biological target: T1, human FAPα-His tag (Sino biological) (human, UniProt Q12884 26-760); experiment: competitive ELISA on coated human FAPα; biotinylated mAb alone, no competing Ab (row '0')
T1 construct: Bought protein; also called human FAPα-His protein; not shown: His tag
T1 sequence (looked up): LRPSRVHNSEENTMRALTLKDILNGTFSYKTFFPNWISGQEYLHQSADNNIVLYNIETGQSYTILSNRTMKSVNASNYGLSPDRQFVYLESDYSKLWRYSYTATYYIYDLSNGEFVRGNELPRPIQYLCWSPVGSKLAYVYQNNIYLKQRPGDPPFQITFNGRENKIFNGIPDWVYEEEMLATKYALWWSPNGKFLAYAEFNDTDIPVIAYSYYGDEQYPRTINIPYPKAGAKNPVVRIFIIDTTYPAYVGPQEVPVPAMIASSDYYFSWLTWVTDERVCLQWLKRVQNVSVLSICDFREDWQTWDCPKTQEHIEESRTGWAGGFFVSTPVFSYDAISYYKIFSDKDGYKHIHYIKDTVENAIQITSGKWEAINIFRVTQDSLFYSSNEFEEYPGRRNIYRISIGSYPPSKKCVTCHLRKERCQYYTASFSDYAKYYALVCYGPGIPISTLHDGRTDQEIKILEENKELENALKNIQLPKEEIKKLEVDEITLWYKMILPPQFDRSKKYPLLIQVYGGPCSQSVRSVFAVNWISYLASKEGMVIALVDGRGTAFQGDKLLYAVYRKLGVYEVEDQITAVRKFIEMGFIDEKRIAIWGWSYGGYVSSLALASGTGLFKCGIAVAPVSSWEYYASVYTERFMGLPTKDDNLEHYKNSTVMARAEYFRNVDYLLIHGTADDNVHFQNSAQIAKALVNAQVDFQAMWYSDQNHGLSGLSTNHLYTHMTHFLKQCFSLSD
Protocol: (§1) Briefly, microtiter plates were coated with human FAPα proteins at 0.5 μg/ml in PBS, 100 μl/well at 4° C. overnight, then blocked with 150 μl/well of 1% BSA. Serial dilutions of chimeric antibodies as well as biotin-conjugated reference mAb were added to each well and incubated for 1 hour at RT. The plates were washed with PBS/Tween and then incubate with streptavidin-HRP for 15 mins at RT. After washing, the plates were developed with TMB substrate and analyzed by spectrophotometer at OD 450 nm. According to the competition ability to reference mAbs (Benchmark, or “BMK”), all tested FAPα mAbs binds to the similar epitope as shown in Table 5.

mouse FAPα-His protein = biological target: T2, mouse FAPα-His protein (mouse, UniProt P97321 26-761, limits assumed); experiment: ELISA, plate coated with mouse FAPα-His, anti-human IgG-HRP, OD 450 nm
T2 construct: not shown: His tag
T2 sequence (looked up): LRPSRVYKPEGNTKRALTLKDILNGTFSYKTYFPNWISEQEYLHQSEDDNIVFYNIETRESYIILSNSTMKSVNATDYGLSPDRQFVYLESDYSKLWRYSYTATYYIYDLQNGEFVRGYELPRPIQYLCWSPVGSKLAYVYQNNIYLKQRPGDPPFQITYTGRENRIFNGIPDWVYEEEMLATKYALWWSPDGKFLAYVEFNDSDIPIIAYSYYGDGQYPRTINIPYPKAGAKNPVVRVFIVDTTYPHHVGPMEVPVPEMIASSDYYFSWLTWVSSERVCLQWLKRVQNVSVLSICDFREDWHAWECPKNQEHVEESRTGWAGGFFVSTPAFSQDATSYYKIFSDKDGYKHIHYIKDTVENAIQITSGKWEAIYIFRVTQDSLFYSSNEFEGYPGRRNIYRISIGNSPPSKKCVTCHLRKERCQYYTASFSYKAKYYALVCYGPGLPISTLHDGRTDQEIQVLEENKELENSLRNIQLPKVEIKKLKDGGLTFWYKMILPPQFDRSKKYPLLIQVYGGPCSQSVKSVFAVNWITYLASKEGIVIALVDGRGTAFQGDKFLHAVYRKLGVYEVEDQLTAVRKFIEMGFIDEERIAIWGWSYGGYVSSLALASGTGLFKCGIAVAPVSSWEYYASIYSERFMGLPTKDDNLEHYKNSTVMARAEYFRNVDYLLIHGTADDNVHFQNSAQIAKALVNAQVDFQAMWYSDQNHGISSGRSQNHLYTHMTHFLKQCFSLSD
Protocol: Briefly, microtiter plates were coated with mouse FAPα-His protein at 0.5 ug/ml in PBS, 100 μl/well at 4° C. overnight, then blocked with 150 μl/well of 1% BSA. Three-fold dilutions of tested antibodies starting from 1 μg/ml were added to each well and incubated for 1 hour at 37° C. The plates were washed with PBS/Tween and then incubated with Anti-Human IgG (H&L) (GOAT) Antibody Peroxidase Conjugated for 30 mins at 37° C. After washing, the plates were developed with TMB substrate and analyzed by spectrophotometer at OD 450 nm.

[2] = biological target: T1, human FAPα-His tag (Sino biological); experiment: competitive ELISA on coated human FAPα; competitor (detected): FAP-I37-Bio
Protocol: Competitive ELISA was carried out to classify the FAPα mAbs based on the binding epitope to human FAPα.
as §1

[3] = biological target: T1, human FAPα-His tag (Sino biological); experiment: competitive ELISA on coated human FAPα; competitor (detected): FAP-G52-Bio
Protocol: as §1

Binder	OD 450 nm [1]	binding result (mouse FAPα-His protein)	OD 450 nm [2]	OD 450 nm [3]
G14 (antibody, V domains shown, Full human antibody from a Fab phage library; Tested as a mAb (detected with anti-human IgG, captured on Protein A); also called FAP-G14; FAP-G14-Bio (biotin-conjugated form)) VH: QVQLLESGGGVVQPGRSLRLSCAASGFTFSSYAMHWVRQAPGKGLEWVAFISHDGNRNSYADSVRGRFTISRDNSKNTLYLQMNSLRAEDTAVYYCARDLGYYNGFSYWGQGTLVTVSA VL: DIVMTQSPSSVSASVGDRVTITCRASQGISSWLAWYQQKPGKAPKLLIYAASSLQSGVPSRFSGSGSGTDFTLTISSLQPEDFATYYCQQANSFPPTFGPGTKVDIK	2.15 OD 450 nm	no binding (tested: 1000 ng/ml)	0.457 OD 450 nm	0.195 OD 450 nm
I30 (antibody, V domains shown, Tested as a mAb; also called 130; FAP-I30) VH: not shown VL: AIRLTQSPSSVSASVGDRVTITCRASQGISSWLAWYQQKPGKAPKLLIYAASSLQSGVPSRFSGSGSGTDFTLTISSLQPEDFATYYCQQANSFPPTFGGGTKVEIK	1.49 OD 450 nm	no binding (tested: 1000 ng/ml)	0.219 OD 450 nm	0.146 OD 450 nm
I37 (antibody, V domains shown, Tested as a mAb; also called FAP-I37) VH: QLQLVESGGGLVQPGGSLRLSCAASGFTFSSYAMSWVRQAPGKGLEWVSAISGSGGSTYYADSVKGRFTISRDNSKNTLYLQMNSLRAEDTAVYYCARDKPWGGSFDYWGQGTLVTVSA VL: DIQLTQSPSSLSASVGDRVTITCRASQGISSWLAWYQQKPGKAPKLLIYAASSLQSGVPSRFSGSGSGTDFTLTISSLQPEDFATYYCQQANSFPVTFGPGTKVDIK	1.72 OD 450 nm	–	0.602 OD 450 nm	0.18 OD 450 nm
J40 (antibody, V domains shown, Tested as a mAb; also called FAP-J40; FAP-J40-Bio (biotin-conjugated form)) VH: EVQLLESGGGLVQPGGSLRLSCAASGFTFSSYAMSWVRQAPGKGLEWVSAISGSGGSTYYADSVKGRFTISRDNSKNTLYLQMNSLRTDDTAVYYCARDLTTSTGWESWGQGTLVTVSA VL: NIQMTQSPSSVSASVGDRVTITCRASQGISSWLAWYQQKPGKAPKLLIYAASSLQSGVPSRFSGSGSGTDFTLTISSLQPEDFATYYCQQANSFPPTFGQGTKLEIK	1.2 OD 450 nm	no binding (tested: 1000 ng/ml)	0.435 OD 450 nm	0.206 OD 450 nm
